A short description of this data set: yeast display, Sf9 membrane polyspecificity reagent, FACS + sequencing; frameworks hold sequencing errors. Summed up:
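Nanobodies came from a synthetic yeast display library in Saccharomyces cerevisiae BJ5465, induced with galactose for 36–48 hours and stained for 1 hour at 4 °C with 10% biotinylated, detergent-solubilized Sf9 membrane reagent. Cells were enriched on streptavidin microbeads and then FACS-sorted, with low and high (top ~1%) gates set on anti-HA fluorescence for expression and streptavidin fluorescence for reagent binding. Each polyreactivity label reflects the gate a clone came from. Genes were amplified by colony PCR, sequenced by MiSeq 2 × 250 and filtered by CDR length.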
Consider “QVQLVVSGGGLVHAGGSLRLSCAASGNTIFYYDLGGYIQAPGKERELVADITSRGTRTYYADSVKGRFTISRDKAKNTVYLQMNSLKPEDTAVYYCNKARGVAYDWGQGTQVTVSS”, for which the “polyreactivity (PSR sort gate)” value is “high polyreactivity”.

For the sequence “QVQLVVSGGGLVQAGGILRLICAASGIIFSFYTMGGYRQAPGKERELVAAISTGGGSTYYADSVKGRFTISRDNAKNTVYLQMNSLIPEDTAVSYCAASQSWYWGGAHDNGEFGYCGQGTQVTVSS”, the “polyreactivity (PSR sort gate)” value is listed as “low polyreactivity”. Regarding “QVQLVVSGGGLVQAGGSLRLSCAASGFIFGYYAMGWYRQAPGNERALDAAITGRGGSTNYADSVKGRFTISRDNAKNTVYLQMNSLKPEDTAVYYCAKRWRSYSRGGDYWGQGTQVTVSS”, the “polyreactivity (PSR sort gate)” value is reported as “high polyreactivity”. Next, “QVQLVVSGGGLVQAGGSLRLSCAASGFTFIVNAMGWYRQAPGKERELVAAISWNGGSTYYADSVKGRFTISRDNAKNTVYLQMNSLKPEATAVYYCAAVRYNSRGSTTPSEMYYWGQGTQVTVSS”: “low polyreactivity”; “QVQLVVSGGGLVQAGGSLRLSCAASGRFFGYYARGWYRQAPGEERELVAAITRGGSTNYADSVKGRFTISRDNAKNTVYLQMNSLKPEDTAVYYCNARRYRPGTASYDYWGQGTQVTVSS”: “high polyreactivity”; “QVQLVVSGGGLVQAGGSLRLSCAASGRIFRSYAKGWYRQAPGKERELVAAINYGGTSTYYADSVKGRFTISRDNAKNTVYLQMNSLKPEDTAVYYCAARRPTSPRRYESWGQGTQVTVSS”: “high polyreactivity”. Take “QVQLVVSGGGLVQAGGSLRLSCAASGSTFSLNAMGWYRQAPGKERELVAVITRGTSTYYADSVKGRFTISRDNAKNTVYLQMNRLTPEDNAVYYCAAAVWWSVVWAARYGYWGQGTQVTVSS”: the “polyreactivity (PSR sort gate)” value is on record as “low polyreactivity”.

“QVQLVVSGGGLVQAGGSLRLSCAASGYIFVYNAMGWYRQAPGKERELVSAITDGGGSTYADSVKGRFTISRDNAKNTVYLQMNSLKPEDTAVYYCAALYSDTTWYVLYYYWGQGTQVTVSS”: the “polyreactivity (PSR sort gate)” value is “low polyreactivity”.

As to “QVQLVVSGGGLVQAGGSLRLSGAASGSIFWVYAMGWSRQAPGKELELVAAINWRGGSTYYADSVKGRFTISRDNAKNTVYLQKNSLKPEDTAVYNCAVQPNYYGMGYWGQGTQVTVSS”, the “polyreactivity (PSR sort gate)” value was “high polyreactivity”.

“QVQLVYSGGGLVQAGGSLRLSCAASGRTFSWYAMGWYRTAPGKESELVAAITWSGGSTYYADSVKGRFTISRDNAKNTVYLEMNSLKPEDTAVYFCNALRYSNRRYYSTGPHDYWGQGTHVTVSS”: the “polyreactivity (PSR sort gate)” value was “high polyreactivity”. Next, “QVQLVYSGGGLVQAGGSLSLSCAASGSTIDGYAMGWYRQAPGKERELVAAISSSGASTYYADSVKGRFTISRDNAKNTVYLQMNSLKPEDTAVYYCNRVTCQQKNDYWGQGTQVTVSS”: “high polyreactivity”. Next, “QVQLVYSGGGLVQSGGSLRLSCAASGYIVQPYAMGWYRQAQGKERELVAPISWRGGSTYSADSVKGRFTISRDNAKNTVYLQMYSLKPEDTAVYYFAKDYYYGLEHYGYWGQGTQVTVSS”: “low polyreactivity”.

As to “QVQNEESGGGLVQAGGSLRLSCAASGRNFSSYAMGWYRQAPGKERELVAAISRAGGTYYADSVKGRFTISRDNAKNTVYLQMNSMKPEDTAVYYCAARQSVYGLRSDFYYWGQGTQVTVSS”, the “polyreactivity (PSR sort gate)” value was “high polyreactivity”. Next, “QVQNVESGRGLVQAGGSLRISCAASGDYAMGWSIQAPGTERELVAAISRRGGSTYYADSVKGRFTISRDNAKNTVYLQMNSLKQDDTAVYSCAADYSSRNRGNRYRLDYWGQGTQVTVSS”: “high polyreactivity”; “QVQPVESAGGLVQAGGSLRLSCAASGSTFARYAMGWFSQAPGKERELVAVITWTGGSTYADSVKGRFTISRDNAKNTVYLQMNSLNPEDTAVYYCNAVHATRRRLGYWGQGTQVTVSS”: “low polyreactivity”.

With “QVQPVESGGGLVQAGGSLRLSCAASGRTFWYYTMGWYRQAPGKERELVAAITSVGSTYYADSVKGRFTISRDNAKNTVYLQMNSLKPEDTAVYYCAKLYSYTHQSFDHWGQGTQVTVSS”, the “polyreactivity (PSR sort gate)” value is reported as “high polyreactivity”.

Source of the values: the nanobody polyreactivity screen of Harvey et al. (2022).
